Tests used:
human CD20 [1] = target: T1, human CD20 (human, UniProt P11836 1-297); assay: flow cytometry on Daudi cells (CD20-positive, CD3-negative); PE-conjugated goat anti-human IgG F(ab')2; median FI (PE)
T1 construct: whole, on cells; On Daudi and other human B cell lines, on human B cells in blood, or transiently expressed in HEK293F cells (construct pEE12.4CD20HS-GA); also called wild type CD20; WT CD20
T1 sequence (looked up): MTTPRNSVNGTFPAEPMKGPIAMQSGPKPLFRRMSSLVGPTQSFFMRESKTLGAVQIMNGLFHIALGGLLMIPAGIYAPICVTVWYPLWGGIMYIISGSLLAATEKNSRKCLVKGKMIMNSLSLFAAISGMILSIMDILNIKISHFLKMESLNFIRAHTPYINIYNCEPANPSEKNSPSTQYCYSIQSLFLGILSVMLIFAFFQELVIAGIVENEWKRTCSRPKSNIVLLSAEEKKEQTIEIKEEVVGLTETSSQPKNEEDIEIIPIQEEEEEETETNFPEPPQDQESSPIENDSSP
Description: (§1) In addition to the non-activating mutations, L234F, L235E, D265A, on both arms, the bispecific antibody contained an F405L mutation on one arm and a K409R mutation on the other arm.
(§2) Cells (1×10⁵ cells/well) were incubated in polystyrene 96-well round-bottom plates (Greiner bio-one, cat. no. 650101) with serial dilutions of antibodies (range 0.041 to 30 μg/mL in 3-fold dilution steps [A-E] and 0.00061 to 10 μg/mL in 4-fold dilution steps [F-I]) in 100 μL PBS/0.1% BSA/0.02% azide (from here designated as staining buffer) at 4° C. for 30 min.
(§3) After washing twice in staining buffer, cells were incubated in 50 μL secondary antibody at 4° C. for 30 min. As a secondary antibody, R-Phycoerythrin (PE)-conjugated goat-anti-human IgG F(ab′)₂ (cat. no. 109-116-098, Jackson ImmunoResearch Laboratories, Inc., West Grove, Pa.) diluted 1:200 in staining buffer, was used for all experiments. Next, cells were washed twice in staining buffer, re-suspended in 30 μL staining buffer and analyzed on an iQue screener (Intellicyt Corporation, USA) (for FIG. 1A-E) or re-suspended in 100 μL staining buffer and analyzed on a FACSCANTOII (BD Biosciences) (FIG. 1F-I). Binding curves were analyzed using non-linear regression (sigmoidal dose-response with variable slope) using GraphPad Prism V75.04 software (GraphPad Software, San Diego, Calif., USA).

human CD20 [2] = target: T1, human CD20; assay: flow cytometry on HEK293F cells transiently expressing wild type CD20; PE-conjugated goat anti-human IgG F(ab')2; MFI
Description: (§4) PCR was performed on a Tgradient Thermocycler 96 (Biometra) using a 35 cycle program of: +95° C. for 15 min, followed by 35 cycles of: +94° C. for 30 sec, anneal: 55° C. for 30 sec and extension: +72° C. for 2 min, followed by a final extension step at 72° C. for 10 min and subsequent storage at 4° C. The completed reactions were analyzed by agarose gel electrophoresis. See Table 11 for details of primer pairs used for colony PCR. DNA sequencing: Plasmid DNA samples were send to AGOWA (Berlin, Germany) for sequence analysis. Sequences were analyzed using the VectorNTI software package (Informax, Frederick, Md., USA).
(§5) Mutagenesis: The mutagenesis was performed, using the QuikChange® XL Site-Directed Mutagenesis kit (Cat 200517-5, Lot 1120630, Stratagene Europe) according to the manufacturer's instructions. Mutagenesis reactions were concentrated using ethanol precipitation and transformed into either oneshot DH5α-TIR competent E. coli cells or electroporated into ElectroTen-Blue® Electroporation-Competent Cells. Colonies were checked by colony PCR and restriction digestion prior to transfection. […] Anti-CD20 Antibody binding: HEK293F cells were taken up in staining buffer (PBS supplemented with 0.1% BSA and 0.02% NaN₃) and added to round bottom plates (1-3×10⁵/well in 100 μL). […] After washing twice in staining buffer, cells were incubated in 50 μL secondary antibody at 4° C. for 30 min. As a secondary antibody, R-Phycoerythrin (PE)-conjugated goat-anti-human IgG F(ab′)₂ was used, as described supra. Next, cells were washed once in staining buffer, re-suspended in 150 μL staining buffer and analyzed on a flow cytometer (FACSCanto-720, Becton Dickinson, San Diego, Calif., USA) and 10,000 events per sample were acquired at high flow rate. Binding curves were analyzed using non-linear regression (sigmoidal dose-response with variable slope) using GraphPad Prism V75.04 software (GraphPad Software, San Diego, Calif., USA).

CD20-AxP [3] = target: T2, CD20-AxP (human, UniProt P11836 1-297); assay: flow cytometry on HEK293F cells transiently expressing CD20-AxP (A170S/P172S); PE-conjugated goat anti-human IgG F(ab')2; MFI
T2 construct: whole, on cells; Transiently expressed in HEK293F cells; also called AxP mutant; CD20 mutant (CD20-AxP)
T2 sequence (looked up): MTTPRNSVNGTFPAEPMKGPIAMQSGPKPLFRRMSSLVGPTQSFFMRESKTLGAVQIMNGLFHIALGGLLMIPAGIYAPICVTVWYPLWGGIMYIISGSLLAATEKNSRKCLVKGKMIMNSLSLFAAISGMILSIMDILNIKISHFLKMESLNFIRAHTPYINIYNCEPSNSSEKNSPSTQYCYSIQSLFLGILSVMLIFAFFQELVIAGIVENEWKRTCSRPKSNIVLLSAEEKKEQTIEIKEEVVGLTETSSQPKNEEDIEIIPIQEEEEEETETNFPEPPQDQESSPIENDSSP
Description: as §4, §5

CD20 KDD mutant [4] = target: T3, CD20 KDD mutant (human, UniProt P11836 1-297); assay: flow cytometry, HEK293F cells expressing CD20 KDD mutant
T3 construct: whole, on cells; Transiently expressed in HEK293F cells; also called T159K/N163D/N166D
T3 sequence (looked up): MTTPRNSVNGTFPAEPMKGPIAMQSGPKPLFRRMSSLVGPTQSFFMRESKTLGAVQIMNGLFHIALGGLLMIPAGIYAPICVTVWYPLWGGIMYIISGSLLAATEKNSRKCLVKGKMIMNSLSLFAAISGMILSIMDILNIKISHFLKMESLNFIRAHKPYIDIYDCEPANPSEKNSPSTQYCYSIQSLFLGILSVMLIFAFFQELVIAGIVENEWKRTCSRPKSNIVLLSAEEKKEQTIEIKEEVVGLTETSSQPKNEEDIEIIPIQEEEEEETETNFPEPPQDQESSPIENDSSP
Description: as §4, §5

human CD3 = target: T4, human CD3 (human, UniProt P07766 22-207); assay: flow cytometry on Jurkat cells (CD3-positive, CD20-negative); PE-conjugated goat anti-human IgG F(ab')2; median FI (PE)
T4 construct: CD3 as part of the TCR complex on Jurkat cells or human T cells; also called human CD3ε (epsilon)
T4 sequence (P07766 22-207 limits assumed): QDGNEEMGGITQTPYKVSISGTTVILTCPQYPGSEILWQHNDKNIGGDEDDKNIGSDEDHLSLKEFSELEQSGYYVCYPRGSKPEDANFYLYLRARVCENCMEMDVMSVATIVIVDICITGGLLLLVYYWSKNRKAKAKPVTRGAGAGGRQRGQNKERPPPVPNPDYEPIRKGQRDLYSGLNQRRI
Description: as §1, §2, §3

CD20-AxP [5] = target: T2, CD20-AxP; assay: flow cytometry, HEK293F transfectants, MFI mutant/MFI wt at 10 µg/mL
Description: (§6) As a secondary antibody, R-Phycoerythrin (PE)-conjugated goat-anti-human IgG F(ab′)₂ was used, as described supra. Next, cells were washed once in staining buffer, re-suspended in 150 μL staining buffer and analyzed on a flow cytometer (FACSCanto-720, Becton Dickinson, San Diego, Calif., USA) and 10,000 events per sample were acquired at high flow rate. Binding curves were analyzed using non-linear regression (sigmoidal dose-response with variable slope) using GraphPad Prism V75.04 software (GraphPad Software, San Diego, Calif., USA).
(§7) Numbers indicate the percentage of binding to the CD20 mutants, relative to binding to wild type CD20, at 10 μg/mL. The percentage of binding was calculated by the following formula: (MFI binding to CD20 mutant)/(MFI binding CD20 wt) × 100%

CD20 KDD mutant [6] = target: T3, CD20 KDD mutant; assay: as above
Description: as §6, §7

B1: bsIgG1-huCLB-T3/4-FEALxCD20-7D8-FEAR (bispecific antibody)
heavy 1: EVQLVESGGGLVKPGGSLRLSCAASGFTFSSYGMFWVRQAPGKGLEWVATISRYSRYIYYPDSVKGRFTISRDNAKNSLYLQMNSLRAEDTAVYYCARRPLYGSSPDYWGQGTLVTVSSASTKGPSVFPLAPSSKSTSGGTAALGCLVKDYFPEPVTVSWNSGALTSGVHTFPAVLQSSGLYSLSSVVTVPSSSLGTQTYICNVNHKPSNTKVDKRVEPKSCDKTHTCPPCPAPEFEGGPSVFLFPPKPKDTLMISRTPEVTCVVVAVSHEDPEVKFNWYVDGVEVHNAKTKPREEQYNSTYRVVSVLTVLHQDWLNGKEYKCKVSNKALPAPIEKTISKAKGQPREPQVYTLPPSREEMTKNQVSLTCLVKGFYPSDIAVEWESNGQPENNYKTTPPVLDSDGSFLLYSKLTVDKSRWQQGNVFSCSVMHEALHNHYTQKSLSLSPGK
VL 1: EIVLTQSPATLSLSPGERATLSCSASSSVTYVHWYQQKPGQAPRLLIYDTSKLASGIPARFSGSGSGTDFTLTISSLEPEDFAVYYCFQGSGYPLTFGSGTKLEMR
heavy 2: EVQLVESGGGLVQPDRSLRLSCAASGFTFHDYAMHWVRQAPGKGLEWVSTISWNSGTIGYADSVKGRFTISRDNAKNSLYLQMNSLRAEDTALYYCAKDIQYGNYYYGMDVWGQGTTVTVSSASTKGPSVFPLAPSSKSTSGGTAALGCLVKDYFPEPVTVSWNSGALTSGVHTFPAVLQSSGLYSLSSVVTVPSSSLGTQTYICNVNHKPSNTKVDKRVEPKSCDKTHTCPPCPAPEFEGGPSVFLFPPKPKDTLMISRTPEVTCVVVAVSHEDPEVKFNWYVDGVEVHNAKTKPREEQYNSTYRVVSVLTVLHQDWLNGKEYKCKVSNKALPAPIEKTISKAKGQPREPQVYTLPPSREEMTKNQVSLTCLVKGFYPSDIAVEWESNGQPENNYKTTPPVLDSDGSFFLYSRLTVDKSRWQQGNVFSCSVMHEALHNHYTQKSLSLSPGK
VL 2: EIVLTQSPATLSLSPGERATLSCRASQSVSSYLAWYQQKPGQAPRLLIYDASNRATGIPARFSGSGSGTDFTLTISSLEPEDFAVYYCQQRSNWPITFGQGTRLEIK
notes: also called huCLB-T3/4x7D8; bsIgG1-huCLB-3/4-FEALxCD20-7D8-FEAR
- EC50 (read off the curve) (human CD20 [1]): ~0.8 µg/mL
- EC50 (read off the curve) (human CD20 [2]): ~0.1 µg/mL
- EC50 (read off the curve) (CD20-AxP [3]): ~0.2 µg/mL
- binding result (CD20 KDD mutant [4]): no binding (tested: 0.0015-10 µg/mL)
- EC50 (read off the curve) (human CD3): ~0.1 µg/mL
- % of wt CD20 binding (CD20-AxP [5]): 113%
- % of wt CD20 binding (CD20 KDD mutant [6]): 3%

B2: bsIgG1-huCLB-T3/4-FEALxCD20-11B8-FEAR (bispecific antibody)
heavy 1: EVQLVESGGGLVKPGGSLRLSCAASGFTFSSYGMFWVRQAPGKGLEWVATISRYSRYIYYPDSVKGRFTISRDNAKNSLYLQMNSLRAEDTAVYYCARRPLYGSSPDYWGQGTLVTVSSASTKGPSVFPLAPSSKSTSGGTAALGCLVKDYFPEPVTVSWNSGALTSGVHTFPAVLQSSGLYSLSSVVTVPSSSLGTQTYICNVNHKPSNTKVDKRVEPKSCDKTHTCPPCPAPEFEGGPSVFLFPPKPKDTLMISRTPEVTCVVVAVSHEDPEVKFNWYVDGVEVHNAKTKPREEQYNSTYRVVSVLTVLHQDWLNGKEYKCKVSNKALPAPIEKTISKAKGQPREPQVYTLPPSREEMTKNQVSLTCLVKGFYPSDIAVEWESNGQPENNYKTTPPVLDSDGSFLLYSKLTVDKSRWQQGNVFSCSVMHEALHNHYTQKSLSLSPGK
VL 1: EIVLTQSPATLSLSPGERATLSCSASSSVTYVHWYQQKPGQAPRLLIYDTSKLASGIPARFSGSGSGTDFTLTISSLEPEDFAVYYCFQGSGYPLTFGSGTKLEMR
heavy 2: EVQLVQSGGGLVHPGGSLRLSCTGSGFTFSYHAMHWVRQAPGKGLEWVSIIGTGGVTYYADSVKGRFTISRDNVKNSLYLQMNSLRAEDMAVYYCARDYYGAGSFYDGLYGMDVWGQGTTVTVSSASTKGPSVFPLAPSSKSTSGGTAALGCLVKDYFPEPVTVSWNSGALTSGVHTFPAVLQSSGLYSLSSVVTVPSSSLGTQTYICNVNHKPSNTKVDKRVEPKSCDKTHTCPPCPAPEFEGGPSVFLFPPKPKDTLMISRTPEVTCVVVAVSHEDPEVKFNWYVDGVEVHNAKTKPREEQYNSTYRVVSVLTVLHQDWLNGKEYKCKVSNKALPAPIEKTISKAKGQPREPQVYTLPPSREEMTKNQVSLTCLVKGFYPSDIAVEWESNGQPENNYKTTPPVLDSDGSFFLYSRLTVDKSRWQQGNVFSCSVMHEALHNHYTQKSLSLSPGK
VL 2: EIVLTQSPATLSLSPGERATLSCRASQSVSSYLAWYQQKPGQAPRLLIYDASNRATGIPARFSGSGSGTDFTLTISSLEPEDFAVYYCQQRSDWPLTFGGGTKVEIK
notes: also called huCLB-T3/4x11B8; bsIgG1-huCLB-3/4-FEALxCD20-11B8-FEAR
- EC50 (read off the curve) (human CD20 [2]): ~0.1 µg/mL
- EC50 (read off the curve) (CD20-AxP [3]): ~0.3 µg/mL
- EC50 (read off the curve) (human CD3): ~0.06 µg/mL
- % of wt CD20 binding (CD20-AxP [5]): 118%
- % of wt CD20 binding (CD20 KDD mutant [6]): 54%

Reference: patent US20200199231A1 (Genmab, published 2020)
